Assay results reported in paper doi:10.1101/2023.04.25.538284 (bioRxiv, 2023).

T1: His-MBP-SIZ1-C (Arabidopsis thaliana, UniProt Q680Q4-3 435-873)
T1 sequence (looked up): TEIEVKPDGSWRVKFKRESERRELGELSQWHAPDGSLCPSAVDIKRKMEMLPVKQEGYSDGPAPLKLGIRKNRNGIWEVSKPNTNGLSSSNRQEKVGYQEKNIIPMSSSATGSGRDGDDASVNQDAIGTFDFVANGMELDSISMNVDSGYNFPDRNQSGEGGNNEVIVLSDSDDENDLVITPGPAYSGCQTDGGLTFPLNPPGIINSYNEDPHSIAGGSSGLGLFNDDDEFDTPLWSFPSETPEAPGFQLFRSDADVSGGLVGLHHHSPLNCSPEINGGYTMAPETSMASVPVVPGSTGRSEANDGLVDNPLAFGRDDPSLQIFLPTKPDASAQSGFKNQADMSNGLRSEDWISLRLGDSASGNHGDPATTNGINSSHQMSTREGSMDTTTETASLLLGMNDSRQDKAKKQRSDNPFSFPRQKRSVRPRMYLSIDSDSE

B1: GST-SnRK2.4 (enzyme, Arabidopsis thaliana, UniProt P43291 1-363, looked up)
chain: MDKYELVKDIGAGNFGVARLMKVKNSKELVAMKYIERGPKIDENVAREIINHRSLRHPNIIRFKEVVLTPTHLAIAMEYAAGGELFERICSAGRFSEDEARYFFQQLISGVSYCHAMQICHRDLKLENTLLDGSPAPRLKICDFGYSKSSLLHSRPKSTVGTPAYIAPEVLSRREYDGKMADVWSCGVTLYVMLVGAYPFEDQEDPKNFRKTIQKIMAVQYKIPDYVHISQDCKNLLSRIFVANSLKRITIAEIKKHSWFLKNLPRELTETAQAAYFKKENPTFSLQTVEEIMKIVADAKTPPPVSRSIGGFGWGGNGDADGKEEDAEDVEEEEEEVEEEEDDEDEYDKTVKEVHASGEVRIS
B2: GST-SnRK2.6 (enzyme, Arabidopsis thaliana, UniProt Q940H6 1-362, looked up)
chain: MDRPAVSGPMDLPIMHDSDRYELVKDIGSGNFGVARLMRDKQSNELVAVKYIERGEKIDENVKREIINHRSLRHPNIVRFKEVILTPTHLAIVMEYASGGELFERICNAGRFSEDEARFFFQQLISGVSYCHAMQVCHRDLKLENTLLDGSPAPRLKICDFGYSKSSVLHSQPKSTVGTPAYIAPEVLLKKEYDGKVADVWSCGVTLYVMLVGAYPFEDPEEPKNFRKTIHRILNVQYAIPDYVHISPECRHLISRIFVADPAKRISIPEIRNHEWFLKNLPADLMNDNTMTTQFDESDQPGQSIEEIMQIIAEATVPPAGTQNLNHYLTGSLDIDDDMEEDLESDLDDLDIDSSGEIVYAM

Molecular target: T1, His-MBP-SIZ1-C
Assay: pull-down

Row | Binder | binding result
1 | B1 | binds
2 | B2 | binds
